From PMC11892807

Legend:
[1] = molecular target: CA(A14C/E45C/W184A/M185A) (HIV-1); test: mass photometry; no ligand added; 2 uL of sample into 18 uL buffer, 60 s at 331 Hz; unliganded WT CA and pre-formed cross-linked pentamers and hexamers as controls
[2] = molecular target: CA(A14C/E45C/W184A/M185A) (HIV-1); test: cross-linking; as the DMSO reaction, but 2 uM LEN pre-incubated with monomeric CA (1 uM) before concentration to 125 uM and sequential dialysis out of beta-mercaptoethanol; products on SDS-PAGE
[3] = molecular target: CA(A14C/E45C/W184A/M185A) (HIV-1); test: cross-linking; disulfide cross-linking of monomeric CA with DMSO, by sequential dialysis out of beta-mercaptoethanol at 4 C (final 20 mM Tris-HCl pH 8, 40 mM NaCl, no reducing agent); products on SDS-PAGE; legend: 1 uM CA, methods: diluted to 1 uM, then concentrated to 125 uM
[4] = molecular target: CA(N21C/A22C/W184A/M185A) (HIV-1); test: mass photometry; no ligand added; 2 uL of sample into 18 uL buffer, 60 s at 331 Hz; unliganded WT CA and pre-formed cross-linked pentamers and hexamers as controls
[5] = molecular target: CA(N21C/A22C/W184A/M185A) (HIV-1); test: cross-linking; disulfide cross-linking of monomeric CA with DMSO, by sequential dialysis out of beta-mercaptoethanol at 4 C (final 20 mM Tris-HCl pH 8, 40 mM NaCl, no reducing agent); products on SDS-PAGE; legend: 1 uM CA, methods: diluted to 1 uM, then concentrated to 125 uM

| Substance | stoichiometry N [1] | stoichiometry N [2] | stoichiometry N [3] | stoichiometry N [4] | stoichiometry N [5] |
| --- | --- | --- | --- | --- | --- |
| CA(A14C/E45C/W184A/M185A) (natural protein) | 6 | 6 | 6 | – | – |
| CA(N21C/A22C/W184A/M185A) (natural protein) | – | – | – | 5 | 5 |
